Blank lines part the entries; values can stand above or below the binder they belong to.
What was measured:
human CD154 = target: T1, human CD154 (human, UniProt P29965 113-261, limits assumed); test: BLI (Octet K2), CD154 amine-coupled to AR2G sensor, antibody in solution; average
T1 construct: Coupled to amine reactive (AR2G) biosensors at 5 ug/ml; also called hCD154; CD40L
T1 sequence (looked up): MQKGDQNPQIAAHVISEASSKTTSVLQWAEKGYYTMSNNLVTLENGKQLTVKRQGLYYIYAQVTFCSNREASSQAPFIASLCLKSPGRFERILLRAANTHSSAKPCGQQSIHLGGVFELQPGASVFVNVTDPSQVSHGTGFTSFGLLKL
Description: To this end, the present inventors first attached CD154 protein to 96-well plates using Dip and Read™ Amine Reactive 2nd Generation (AR2G) Reagent Kit (forteBio, Cat No. 18-5092). Specifically, after dispensing 200 μl of DW in a 96-well plate, an amine biosensor included in the kit was inserted and hydrated for 10 minutes. Subsequently, after dispensing 200 μl of DW was additionally to the plate, EDC:NHS was mixed in a 1:1 ratio in a volume corresponding to 1/20 of the required sample, then diluted in DW, and 200 μl was dispensed into the 96-well plate. Subsequently, CD154 protein was diluted to 5 μg/ml in 10 mM acetate solution (pH 6.0), and 200 μl was dispensed into the 96-well plate. Then, 200 μl of 1 M ethanolamine was added to the 96-well plate, and the biosensor plate and the sample plate were inserted into Octet® K2 BLI analyzer and signals were measured. After the measurement was completed, 200 μl of the 1× Kinetics buffer was added to the sample plate, and then a baseline was determined.

Fc gamma receptor I = target: T2, Fc gamma receptor I (UniProt P12314 16-288, limits assumed); test: BLI, fitting view, three repeats
T2 construct: also called FcγRI
T2 sequence (P12314 16-288 limits assumed): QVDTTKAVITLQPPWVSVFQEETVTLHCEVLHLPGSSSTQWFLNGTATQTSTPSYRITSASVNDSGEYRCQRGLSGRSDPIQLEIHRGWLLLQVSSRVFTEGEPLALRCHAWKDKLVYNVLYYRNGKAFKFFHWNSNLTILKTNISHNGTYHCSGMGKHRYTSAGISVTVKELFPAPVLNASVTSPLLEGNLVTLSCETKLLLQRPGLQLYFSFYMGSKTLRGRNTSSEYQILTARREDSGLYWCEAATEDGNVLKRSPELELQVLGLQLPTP

Fc gamma receptor IIIa = target: T3, Fc gamma receptor IIIa (UniProt P08637 17-208); test: BLI, fitting view, three repeats
T3 construct: also called FcγRIIIa
T3 sequence (P08637 17-208 limits assumed): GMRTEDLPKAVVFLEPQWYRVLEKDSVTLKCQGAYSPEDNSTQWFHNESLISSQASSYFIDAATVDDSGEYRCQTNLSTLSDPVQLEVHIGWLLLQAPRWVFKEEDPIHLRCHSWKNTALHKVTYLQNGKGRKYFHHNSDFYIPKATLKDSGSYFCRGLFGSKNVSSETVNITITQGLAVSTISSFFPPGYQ

koff (human CD154): < 1e-07 s⁻¹ | kon (human CD154): 510000 M⁻¹ s⁻¹
B1: chimeric anti-CD154 antibody C10M (antibody, V domains shown, not shown: a dimerising Fc or GST)
VH: EVQLQQSGSELVKPGASVKLSCKASGYIFTSYYMYWVKQRPGQGLEWIGEINPSNGDTNFNEKFKSKATLTVDKSSSTAYMQLISLTSEDSAVYYCTRSDGRNDMDSWGQGTTVTVSS
VL: DIQLTQSPASLAVSLGQRATISCRASQRVSSSTYSYMHWYQQKPGQPPKLLIKYASNLESGVPARFSGSGSGTDFTLNIHPVEEEDSATYYCQHSWEIPPTFGGGTKLEIKR
notes: Mouse-derived anti-CD154 Fab with a mutant human IgG1 Fc region; also called anti-CD154 chimeric antibody

koff (human CD154): < 1e-07 s⁻¹ | kon (human CD154): 807000 M⁻¹ s⁻¹
B2: chimeric hybrid antibody PG-400-1 (antibody, V domains shown)
VH: B1 VH
VL: B1 VL

binding result (Fc gamma receptor I): no binding | binding result (Fc gamma receptor IIIa): no binding
B3: GLP-1E-Fc fusion protein PG-11 (Fc fusion)
chain: HGEGTFTSDVSSYLEGQAAKEFIAWLVKGGPSSGAPPPSGGGGSGGGGSGGGGSEKEKEEQEERTHTCPPCPSHTQPLGVFLFPPKPKDQLMISRTPEVTCVVVDVSQEDPEVQFNWYVDGVEVHNAKTKPREEQFNSTYRVVSVLTVLHQDWLNGKEYKCKVSNKGLPSSIEKTISKAKGQPREPQVYTLPPSQEEMTKNQVSLTCLVKGFYPSDIAVEWESNGQPENNYKTTPPVLDSDGSFFLYSRLTVDKSRWQEGNVFSCSVLHEALHNHYTQKSLSLSLGK
notes: 6 entered; also called modified Fc region protein; fusion protein containing NTIG
